Ends that are not written are not given here.
T1: CRF2R
T1 sequence (Q13324 whole entry, species assumed, looked up): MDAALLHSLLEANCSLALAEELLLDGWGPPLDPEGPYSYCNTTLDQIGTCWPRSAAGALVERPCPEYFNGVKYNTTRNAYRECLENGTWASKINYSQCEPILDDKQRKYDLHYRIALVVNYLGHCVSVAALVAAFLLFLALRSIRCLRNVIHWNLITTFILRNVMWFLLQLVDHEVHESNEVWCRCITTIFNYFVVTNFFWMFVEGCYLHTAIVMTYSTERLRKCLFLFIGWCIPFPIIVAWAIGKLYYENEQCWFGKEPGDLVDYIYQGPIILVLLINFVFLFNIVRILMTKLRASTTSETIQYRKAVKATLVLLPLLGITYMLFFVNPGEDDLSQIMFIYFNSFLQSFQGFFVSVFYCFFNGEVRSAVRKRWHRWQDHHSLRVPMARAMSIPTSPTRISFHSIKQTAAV


Key:
CRF2R = biological target: T1, CRF2R; experiment: cell-based or functional assay
CRF1R = experiment: cell-based or functional assay

Row | Binder | CRF2R EC50 (CRF2R) [nM] | CRF2R Emax (CRF2R) [%] | CRF1R EC50 (CRF1R) [nM] | CRF1R Emax (CRF1R) [%]
1 | SQEPPISLDLPLQLLREVLEMTKADQLAQQAHSNRKLLDIA-NH2 [SEQ ID NO 95] | 100 | 8.25 | 100 | 5.55
2 | IVLSLDVPIGLLQILLEQARQEAAREQATTNARILARV-NH2 [SEQ ID NO 123] | 3.49 | 93.8 | > 1000 | 9.6
3 | SQEIVLSLDVPIGLLREVLEMTKADQLAQQAHSNRKLLDIA-NH2 [SEQ ID NO 7] | 100 | 19 | 100 | 4
4 | IVLSLDVPIGLLQILLEQTKANAAREQATTVARILARV-NH2 [SEQ ID NO 116] | 100 | 26.4 | 100 | 4.8
5 | IVLSLDVPIGLLQILLEQERARAAREQATTNARILARV-NH2 [SEQ ID NO 119] | 3.57 | 95 | > 100 | 3
6 | IVLSLDVPIGLLQILLEQAKARAAREQATTNARILARV-NH2 [SEQ ID NO 109] | 11.8 | – | 100 | –
7 | SQEPPISLDLPFGLLREVLEMTKADQLAQQAHSNRKLLDIA-NH2 [SEQ ID NO 103] | 100 | 4.85 | 100 | 5.75
8 | IVLSLDVPIGLLQILLEQARAEAAREQATTNARILARV-NH2 [SEQ ID NO 122] | 3.31 | 97 | 1000 | 10.7
9 | IVLSLDVPIGLLQILLEQEKQRAAREQATTNARILARV-NH2 [SEQ ID NO 115] | 13.6 | 98 | > 100 | 7
10 | SQEPPISLDLTFGLLREVLEMTKADQLAQQAHSNRKLLDIA-NH2 [SEQ ID NO 88] | 100 | 12.6 | 100 | 11.2
11 | SQEPPISLDLPLHLLREVLEMTKADQLAQQAHSNRKLLDIA-NH2 [SEQ ID NO 102] | 100 | 13.5 | 100 | 7.8
12 | SQEPPISLDLPIQLLREVLEMTKADQLAQQAHSNRKLLDIA-NH2 [SEQ ID NO 100] | 100 | 9.85 | 100 | 6.25
13 | IVLSLDVPIGLLQILLEQERAEAAREQATTNARILARV-NH2 [SEQ ID NO 113] | 11.3 | 98 | > 100 | 4
14 | SQEPPISLDLPTELLREVLEMTKADQLAQQAHSNRKIIDIA-NH2 [SEQ ID NO 92] | 100 | 15.8 | 100 | 4.6
15 | IVLSLDVPIGLLQILLEQERQEAAREQATTNARILARV-NH2 [SEQ ID NO 118] | 14.6 | 100 | > 100 | 5
16 | SQEPPISLDLPTGLLREVLEMTKADQLAQQAHSNRKLLDIA-NH2 [SEQ ID NO 98] | 100 | 5.5 | 100 | 4
17 | IVLSLDVPIGLLQILLEQAKQRAAREQATTNARILARV-NH2 [SEQ ID NO 110] | 11 | 100 | > 100 | 9
18 | IVLSLDVPIGLLQILLEQAKAEAAREQATTNARILARV-NH2 [SEQ ID NO 112] | 12.3 | 100 | > 100 | 10
19 | IVLSLDVPIGLLQILLEQERQRAAREQATTNARILARV-NH2 [SEQ ID NO 111] | 10.9 | 99 | > 100 | 9

Row | Binder | CRF2R EC50 (CRF2R) [nM] | CRF2R Emax (CRF2R) [%] | CRF1R EC50 (CRF1R) [nM] | CRF1R Emax (CRF1R) [%]
20 | IVLSLDVPIGLLQILLEQTKADAAREQATTNARILARV-NH2 [SEQ ID NO 108] | 79 | 97 | > 100 | 3
21 | SQEPPISLDLTIHLLREVLEMTKADQLAQQAHSNRKLLDIA-NH2 [SEQ ID NO 87] | 100 | 14.7 | 100 | 5.3
22 | SQEPPISLDLPLGLLREVLEMTKADQLAQQAHSNRKLLDIA-NH2 [SEQ ID NO 90] | 100 | 12.2 | 100 | 4
23 | SQEPPISLDLPTQLLREVLEMTKADQLAQQAHSNRKLLDIA-NH2 [SEQ ID NO 105] | 100 | 9.15 | 100 | 5.2
24 | SQEPPISLDLPFHLLREVLEMTKADQLAQQAHSNRKLLDIA-NH2 [SEQ ID NO 104] | 100 | 4.5 | 100 | 11.1
25 | ZGPPISIDLPFQLLRKMIEIEKQEKEKQQATNNRLLLATV (C-terminal amide) [SEQ ID NO 12] | 9.72 | 91 | 928 | 73
26 | SQEPPISLDLPIHLLREVLEMTKADQLAQQAHSNRKLLDIA-NH2 [SEQ ID NO 94] | 100 | 6.15 | 100 | 7.3
27 | SQEPPISLDLPTHLLREVLEMTKADQLAQQAHSNRKLLDIA-NH2 [SEQ ID NO 99] | 100 | 4.35 | 100 | 4.35
28 | SQEPPISLDLPIGLLREVLEMTKADQLAQQAHSNRKLLDIA-NH2 [SEQ ID NO 93] | 100 | 6.4 | 100 | 5
29 | SQEPPISLDLPTYLLREVLEMTKADQLAQQAHSNRKLLDIA-NH2 [SEQ ID NO 106] | 100 | 6.1 | 100 | 4.8
30 | IVLSLDVPIGLLQILLEQTKARAAREQATTNARILARV-NH2 [SEQ ID NO 117] | 9.41 | – | 100 | –
31 | SQEPPISLDLPFYLLREVLEMTKADQLAQQAHSNRKLLDIA-NH2 [SEQ ID NO 96] | 100 | 12.5 | 100 | 16.3
32 | SQEPPISLDLPLYLLREVLEMTKADQLAQQAHSNRKLLDIA-NH2 [SEQ ID NO 101] | 100 | 6.95 | 100 | 7.35
33 | IVLSLDVPIGLLQILLEQARQRAAREQATTNARILARV-NH2 [SEQ ID NO 114] | 3.42 | 100 | > 100 | 6
34 | IVLSLEVPIGLLQILLEQARARAAREQATTNARILARV-NH2 [SEQ ID NO 120] | 69.9 | 100 | 100 | 7
35 | SQEPPISLDLPFELLREVLEMTKADQLAQQAHSNRKLLDIA-NH2 [SEQ ID NO 97] | 100 | 7.6 | 100 | 4.25
36 | SQEPPISLDLPFQLLREVLEMTKADQLAQQAHSNRKLLDIA-NH2 [SEQ ID NO 91] | 100 | 7.1 | 100 | 4
37 | IVLSLDVPIGLLQILLEQARARAAREQATTQARILARV-NH2 [SEQ ID NO 9] | 100 | 34 | 100 | 10

Reference: US20030148956A1 (PROCTER AND GAMBLE, published 2003)
